Source: publication PMC7672466, “Biophysical analysis of Pseudomonas-phage PaP3 small terminase suggests a mechanism for sequence-specific DNA-binding by lateral interdigitation”

How the values were obtained:
[1] = molecular target: T1, PaP3 ΔC122-TerS (Pseudomonas phage PaP3, UniProt Q8H9R5 1-121, del122-152); experiment: EMSA; 4-16% acrylamide; stronger than WT on scr; EMSA: incubation 37 C 30 min (binding buffer not stated; proteins in GF buffer 20 mM Tris-HCl pH 7.5, 150 mM NaCl, 5 mM bME, 2.5% glycerol); 1% agarose or 4-16% acrylamide gel, 0.5x TBE, 4 C; conditions: protein: recombinant; tags: GST removed by PreScission protease; chain copies: 9; label: 5' Cy3; blunt
T1 sequence: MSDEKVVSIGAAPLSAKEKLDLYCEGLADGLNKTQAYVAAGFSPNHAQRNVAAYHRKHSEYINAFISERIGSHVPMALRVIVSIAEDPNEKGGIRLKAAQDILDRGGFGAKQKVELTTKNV

[2] = molecular target: T1, PaP3 ΔC122-TerS; experiment: EMSA; 0.15 uM cos DNA on agarose, also 4-16% acrylamide; comparable to WT; EMSA: incubation 37 C 30 min (binding buffer not stated; proteins in GF buffer 20 mM Tris-HCl pH 7.5, 150 mM NaCl, 5 mM bME, 2.5% glycerol); 1% agarose or 4-16% acrylamide gel, 0.5x TBE, 4 C; conditions: protein: recombinant; tags: GST removed by PreScission protease; chain copies: 9; label: 5' Cy3 on both strands; blunt

B1: Cy3-scr (dsDNA)
DNA 1: GCACTGCAGTAACTTGTCAGTCAT
DNA 2: ATGACTGACAAGTTACTGCAGTGC
Q: Does B1 bind [1]?
A: binds

B2: Cy3-cos (dsDNA)
DNA 1: GCCGGCCCCTTTCCGCGTTA
DNA 2: TAACGCGGAAAGGGGCCGGC
Q: Does B2 bind [2]?
A: binds
